Experiments:
[1] = biological target: T1, human MSLN-R1-his protein (human, UniProt Q13421 296-390); test: ELISA, antibody 1 nM
T1 construct: MSLN-R1 = Glu296-Thr390; also called hMSLN-R1-his; not shown: histidine tag
T1 chain: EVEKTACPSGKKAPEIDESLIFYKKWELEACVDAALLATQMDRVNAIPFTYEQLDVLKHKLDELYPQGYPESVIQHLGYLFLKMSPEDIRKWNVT

[2] = biological target: T2, human MSLN-FL-his protein (human, UniProt Q13421 296-580); test: ELISA, antibody 1 nM
T2 construct: also called hMSLN-FL-his; human MSLN full-length protein; not shown: histidine tag

[3] = biological target: T1, human MSLN-R1-his protein; test: ELISA, antibody 1 nM
[4] = biological target: T3, human MSLN-R2-his protein (human, UniProt Q13421 391-486); test: ELISA, antibody 1 nM
T3 construct: MSLN-R2 = Ser391-Asn486; also called hMSLN-R2-his; not shown: histidine tag
T3 sequence (Q13421 other isoform, or with tags, fused parts or gaps): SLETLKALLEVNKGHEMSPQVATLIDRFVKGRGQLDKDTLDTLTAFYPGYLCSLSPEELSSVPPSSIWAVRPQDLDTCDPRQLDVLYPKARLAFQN

[5] = biological target: T4, human MSLN-R3-his protein (human, UniProt Q13421 487-598); test: ELISA, antibody 1 nM
T4 construct: MSLN-R3 = Met487-Ser598; also called hMSLN-R3-his; not shown: histidine tag
T4 sequence (Q13421 495-606): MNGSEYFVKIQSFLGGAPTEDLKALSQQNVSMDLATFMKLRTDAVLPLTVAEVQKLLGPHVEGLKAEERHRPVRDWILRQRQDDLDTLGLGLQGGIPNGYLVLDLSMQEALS

[6] = biological target: T5, human MSLN-R3-3 polypeptide (purchased from GL Biochem, Cat. No. 406676) (human); test: ELISA, antibody 1 nM
T5 construct: Printed as Val539-Val588; also called hMSLN-R3-3
T5 peptide: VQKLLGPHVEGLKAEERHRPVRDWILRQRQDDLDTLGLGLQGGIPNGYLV

[7] = biological target: T1, human MSLN-R1-his protein; test: ELISA, antibody 10 nM
[8] = biological target: T3, human MSLN-R2-his protein; test: ELISA, antibody 10 nM
[9] = biological target: T4, human MSLN-R3-his protein; test: ELISA, antibody 10 nM
[10] = biological target: T1, human MSLN-R1-his protein; test: ELISA, antibody 100 nM
[11] = biological target: T3, human MSLN-R2-his protein; test: ELISA, antibody 100 nM
[12] = biological target: T4, human MSLN-R3-his protein; test: ELISA, antibody 0.1 nM
[13] = biological target: T4, human MSLN-R3-his protein; test: ELISA, antibody 100 nM
[14] = biological target: T3, human MSLN-R2-his protein; test: ELISA, antibody 0.01 nM
[15] = biological target: T4, human MSLN-R3-his protein; test: ELISA, antibody 0.01 nM
[16] = biological target: T1, human MSLN-R1-his protein; test: ELISA, antibody 0.001 nM
[17] = biological target: T3, human MSLN-R2-his protein; test: ELISA, antibody 0.001 nM
[18] = biological target: T4, human MSLN-R3-his protein; test: ELISA, antibody 0.001 nM
[19] = biological target: T1, human MSLN-R1-his protein; test: ELISA, antibody 0.0001 nM
[20] = biological target: T4, human MSLN-R3-his protein; test: ELISA, antibody 0.0001 nM
[21] = biological target: T3, human MSLN-R2-his protein; test: ELISA, antibody 0 nM (blank)
[22] = biological target: T4, human MSLN-R3-his protein; test: ELISA, antibody 0 nM (blank)
[23] = biological target: T6, human MSLN-FL-his protein (human, UniProt Q13421 296-580); test: competitive ELISA on MSLN-FL-His; other antibody: NB148-25 (3.m2)
T6 construct: Made in HEK293E cells, purified on nickel column; also called hMSLN-FL-his; not shown: histidine tag

[24] = biological target: T6, human MSLN-FL-his protein; test: competitive ELISA on MSLN-FL-His; other antibody: NB148-27 (3.m3)
[25] = biological target: T6, human MSLN-FL-his protein; test: competitive ELISA on MSLN-FL-His; other antibody: NB148-35 (3.m4)
[26] = biological target: T6, human MSLN-FL-his protein; test: competitive ELISA on MSLN-FL-His; other antibody: NB148-46 (3.m5)
[27] = biological target: T6, human MSLN-FL-his protein; test: competitive ELISA on MSLN-FL-His; other antibody: NB149-31 (3.m7)
[28] = biological target: T6, human MSLN-FL-his protein; test: competitive ELISA on MSLN-FL-His; other antibody: NB149-34 (3.m8)
[29] = biological target: T6, human MSLN-FL-his protein; test: competitive ELISA on MSLN-FL-His; other antibody: Tab107 (C) (1.m4)

B1: Tab107 (YP3, hIgG1) (antibody, V domains shown)
VH: QEQLVESGGGLVQPGASLTLTCTASGIDFSRYYMCWVRQAPGKGLEGIACIYIGGSGSTYYASWAKGRFTISKASSTTVTLQMTSLTAADTATYFCARGTNLNYIFRLWGPGTLVTVSS
VL: DVVMTQTPSPVSAAVGGTVTIKCQASQSINNGLAWYQQKPGQPPRLLIYSASNLESGVPSRFKGSGSGTEFTLTISDLECDDAATYYCQCIWDGNSYVNAFGGGTEVVVRT
notes: also called YP3 human IgG1 antibody
B1 showed an OD450 nm [1] of 0.05, an OD450 nm [2] of 1.74 and an OD450 nm [3] of 0.05. It also gave an OD450 nm [4] of 0.05, an OD450 nm [5] of 0.05 and an OD450 nm [6] of 0.07. It also gave an OD450 nm [7] of 0.06, an OD450 nm [8] of 0.05 and an OD450 nm [9] of 0.05. For the same binder, the OD450 nm [10] was 0.08, the OD450 nm [11] was 0.09 and the OD450 nm [12] was 0.05. It also gave an OD450 nm [13] of 0.09, an OD450 nm [14] of 0.04 and an OD450 nm [15] of 0.04. For the same binder, the OD450 nm [16] was 0.05, the OD450 nm [17] was 0.05 and the OD450 nm [18] was 0.05. The OD450 nm [19] was 0.04, the OD450 nm [20] was 0.05 and the OD450 nm [21] was 0.05. It also gave an OD450 nm [22] of 0.05, an inhibition rate [23] of 23% and an inhibition rate [24] of 1%. The inhibition rate [25] was 26%, the inhibition rate [26] was 7% and the inhibition rate [27] was -10%. For the same binder, the inhibition rate [28] was -8% and the inhibition rate [29] was 65%.

Reference: patent publication US20240124563A1 (NANJING ZAIMING PHARMACEUTICAL, published 2024)
